The text below walks through data of FireProtDB (doi:10.1006/jmbi.1993.1336).

First the molecules themselves.
B1: Guanyl-specific ribonuclease T1, P00651 (parent)
chain: MMYSKLLTLTTLLLPTALALPSLVERACDYTCGSNCYSSSDVSTAQAAGYQLHEDGETVGSNSYPHKYNNYEGFDFSVSSPYYEWPILSSGDVYSGGSPGADRVVFNENNQLAGVITHTGASGNNFVECT

One series covers variants of B1. To be noted: Aspergillus oryzae (strain ATCC 42149 / RIB 40); pH 5; 25 °C; GdnHCl; Fluorescence; Sodium acetate 0.1 M; reversible: yes; structure 1RN1; whole UniProt chain shown.
As for P65A, the “ddG of mutation (higher = less stable)” value is 5.12 kcal/mol, the denaturant m value worked out at 2.63 kcal/mol/M, the “denaturant midpoint (higher = more stable)” value is 1.71 M and the unfolding free energy was 4.88 kcal/mol.

Still in this series, the particulars now being: Aspergillus oryzae (strain ATCC 42149 / RIB 40); pH 8; 10 °C; GdnHCl; Fluorescence; Tris 0.1 M; reversible: yes; structure 1RN1; whole UniProt chain shown.
For P65A, the “ddG of mutation (higher = less stable)” value came out at 4.33 kcal/mol, the denaturant m value amounted to 2.87 kcal/mol/M, the “denaturant midpoint (higher = more stable)” value turned out to be 1.43 M and the unfolding free energy is 4.11 kcal/mol.
